Assay [1] addresses T1, human LAG-3-his (human, UniProt P18627 23-422).
T1 construct: range 23-422; also called hLAG-3-his; hLAG-3
T1 sequence: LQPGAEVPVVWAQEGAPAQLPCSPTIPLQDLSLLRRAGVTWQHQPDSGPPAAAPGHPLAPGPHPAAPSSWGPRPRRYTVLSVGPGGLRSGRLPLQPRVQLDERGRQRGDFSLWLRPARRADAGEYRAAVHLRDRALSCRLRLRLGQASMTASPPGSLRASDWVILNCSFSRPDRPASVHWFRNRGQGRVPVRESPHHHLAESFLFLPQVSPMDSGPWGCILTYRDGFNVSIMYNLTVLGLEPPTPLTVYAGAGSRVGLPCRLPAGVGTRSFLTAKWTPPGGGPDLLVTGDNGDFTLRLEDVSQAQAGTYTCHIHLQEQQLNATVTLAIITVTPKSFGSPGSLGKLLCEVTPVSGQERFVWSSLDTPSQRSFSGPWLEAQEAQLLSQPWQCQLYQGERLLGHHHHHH
The assay can be described thus: Biacore T200, antibody captured on Protein A, LAG-3-his in solution. As for the experimental part: First, Protein A (Thermo Pierce, Cat. No.: 21181) was coupled to the biosensor chip CMS (GE, Cat. No.: BR-4005-30) using pH 7.4 running buffer HBS-EP+ (10 mM HEPES, 150 mM NaCl, 3 mM EDTA, and 0.05% P20). The chip was activated with a freshly prepared 50 mM NHS (N-hydroxysuccinimide) and 200 mM EDC (1-ethyl-3-(3-dimethylaminopropyl) carbodiimide hydrochloride) followed by injection of 10 μg/ml Protein A prepared with 10 mM NaAc (pH4.0). […] The flow rate was […], binding time was 180 s, and dissociation time was 300 s, After the experiment, the chip was washed for 30 s with 10 mM Glycine-HCl (pH 1.5) at a flow rate of 30 μl/min. The experimental data were fitted with the 1:1 Langmuir model using the software of Biacore T200 evaluation version 3.0 (GE), and the value of affinity KD was obtained.
In general terms: In SPR one partner is held on a chip, and binding of the other changes the refractive index at the surface.

The target in assay [2] is T2, bio-LAG3-mFc (human, UniProt P18627 23-450, biotin-labelled).
T2 construct: also called hLAG-3
T2 sequence (looked up): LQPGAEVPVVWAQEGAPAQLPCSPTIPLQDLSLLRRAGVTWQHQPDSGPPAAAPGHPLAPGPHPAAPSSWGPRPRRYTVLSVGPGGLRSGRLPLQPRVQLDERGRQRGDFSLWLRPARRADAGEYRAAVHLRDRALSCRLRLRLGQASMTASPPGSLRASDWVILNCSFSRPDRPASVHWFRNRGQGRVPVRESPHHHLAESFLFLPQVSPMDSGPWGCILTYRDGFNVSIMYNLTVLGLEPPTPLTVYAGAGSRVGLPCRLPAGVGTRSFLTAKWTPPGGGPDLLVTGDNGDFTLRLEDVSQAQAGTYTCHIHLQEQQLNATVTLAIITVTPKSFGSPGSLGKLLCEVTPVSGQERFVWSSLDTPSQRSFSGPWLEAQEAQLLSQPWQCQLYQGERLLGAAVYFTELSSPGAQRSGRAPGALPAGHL
The assay can be described thus: blocking ELISA, LAG-3 on Daudi cells. (ELISA stands for enzyme-linked immunosorbent assay.)

The target of assay [3] is T2, bio-LAG3-mFc. The assay can be described thus: blocking ELISA, LAG-3 on Daudi cells. The source holds these as a separate data set.
In assay [4] the target is T3, human LAG-3 on CHO-K1 cells (hLAG-3+ cells) (human, UniProt P18627 23-525).
T3 construct: whole, on cells; Cells fixed in the cell ELISA; also called CHO-K1hLAG-3+ cell strain
T3 sequence (looked up): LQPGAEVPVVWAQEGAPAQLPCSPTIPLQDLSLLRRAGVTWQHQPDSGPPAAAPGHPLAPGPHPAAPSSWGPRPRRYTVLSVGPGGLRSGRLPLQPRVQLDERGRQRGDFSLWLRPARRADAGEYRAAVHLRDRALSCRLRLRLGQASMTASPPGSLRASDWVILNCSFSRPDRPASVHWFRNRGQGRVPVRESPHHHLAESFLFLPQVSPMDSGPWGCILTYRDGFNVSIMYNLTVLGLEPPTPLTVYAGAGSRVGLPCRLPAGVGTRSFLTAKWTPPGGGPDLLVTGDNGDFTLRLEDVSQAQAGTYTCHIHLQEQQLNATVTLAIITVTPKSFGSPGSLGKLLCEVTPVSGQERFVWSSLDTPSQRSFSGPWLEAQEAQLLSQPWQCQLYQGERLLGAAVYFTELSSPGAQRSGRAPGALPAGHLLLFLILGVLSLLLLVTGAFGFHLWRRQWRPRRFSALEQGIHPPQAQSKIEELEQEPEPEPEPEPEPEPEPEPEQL
The assay can be described thus: cell ELISA on fixed CHO-K1 hLAG-3+ cells. As for the experimental part:
After washing with PBS (BasalMedia Biology, Cat. No.: B320) once, 5% milk was added with 230 μl per well, and the microplate was incubated for 2 hours at 37° C. for blocking, and then was washed three times with PBST. After washing, each well was added with 50 μl sample (the samples were 5-fold serially diluted with an initial concentration of 10 μg/ml). The microplate was then incubated for 1 hour at 37° C. and washed 5 times with PBST. […] After washing the microplate 5 times with PBST, 50 μl/well TMB (Sunnodic, Cat. No.: TTMB-1000-01) was added to the microplate for color development. Finally, 50 μl/well of 1M H₂SO₄ was added to stop the reaction. The microplate was then read by a microplate reader (MultiskanGO Thermo, model 511919200), and the data were analyzed using Graphpad prism 5.

For assay [5], the target named is T1, human LAG-3-his. Briefly: ELISA on human LAG-3, same experiment.

Positions count from the first letter of the chain named. Several values for one entry are separate records, joined by “and”; a condition that tells them apart may be missing. Equal values may be shown once. Read-outs that look alike come from different tables or passages of the source.

B1: humanized anti-human LAG-3 antibody Ab2317 (antibody, human IgG4 S228P, kappa, V domains shown)
VH: QVQLVQSGAEVKKPGASVKVSCKASGYTFTDYEMHWVKQAPGQGLEWIGGIDPETEGIAYNQKFRGRATLTADKSTSTAYMELRSLRSDDTAVYYCTNSNYYGGREAWFAYWGQGTLVTVSS
VL: DIQMTQSPSSLSASVGDRVTITCRASQDIGSSLNWYQQKPGKAPKRLIYATSSLDSGVPSRFSGSRSGSDFTLTISSLQPEDFATYYCLQYVTSPLTFGGGTKVEIKR
notes: LG2317 / LG2343, human kappa / hIgG4
A word on the Kd: it is the constant that tells how readily two partners part at equilibrium. A low value points to higher affinity. Usually IC50 stands for the concentration that inhibits the measured activity by half. A lower IC50 goes with higher potency. By EC50 is commonly meant the concentration needed to bring the measured effect to its halfway point. A high value points to a need for much substance. In turn, B1 came in with a Kd in the assay with human LAG-3-his [1] of 0.168 nM. The figures for the IC50 in the assay with bio-LAG3-mFc [2] and with bio-LAG3-mFc [3] were 2.7 nM and 1.64 nM, respectively. In addition, the EC50 in assay [4] is 0.2 nM; with human LAG-3-his [5] it was 0.287 nM and 0.579 nM and 0.44 nM.

B2: humanized antibody Ab2325 (antibody, human IgG4 S228P, kappa, V domains shown)
VH: B1 VH with I48M, L70M, A72T, K74T, T97A
VL: B1 VL
notes: LG2317 / LG2348, human kappa / hIgG4
In turn, B2 showed a Kd with human LAG-3-his [1] of 0.19 nM. Further, the half-maximal inhibitory concentration (IC50) in the assay with bio-LAG3-mFc [2] stood at 3.6 nM; with bio-LAG3-mFc [3] it was 1.76 nM. The EC50 amounted to 0.19 nM in assay [4] and 0.312 nM in the assay with human LAG-3-his [5].

(Values after patent US20220340657A1 (L AND L BIO CO LTD NINGBO CHINA, published 2022).)
